Laboratory results published in US20140072613A1, “Compositions and Methods for Treating Cutaneous Scarring” (priority 2012, published 2014).

How the values were obtained:
Assay in all cases: biochemical
Format in all cases: biochemical
[1] = target: 266 human kinases (Homo sapiens, UniProt Q9H1R3); conditions: MLCK(h); 100 μM
Summary of the method: (§1)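 Radiometric filter-binding format: a positively charged substrate takes up radiolabelled phosphate from ATP unless the kinase is inhibited, then is captured on a negatively charged filter membrane. Counts from scintillation are expressed relative to a 100% activity control.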

[2] = target: T1, 266 human kinases (Homo sapiens, UniProt P52333); conditions: JAK3(h); 100 μM
T1 sequence (P52333 1-1124): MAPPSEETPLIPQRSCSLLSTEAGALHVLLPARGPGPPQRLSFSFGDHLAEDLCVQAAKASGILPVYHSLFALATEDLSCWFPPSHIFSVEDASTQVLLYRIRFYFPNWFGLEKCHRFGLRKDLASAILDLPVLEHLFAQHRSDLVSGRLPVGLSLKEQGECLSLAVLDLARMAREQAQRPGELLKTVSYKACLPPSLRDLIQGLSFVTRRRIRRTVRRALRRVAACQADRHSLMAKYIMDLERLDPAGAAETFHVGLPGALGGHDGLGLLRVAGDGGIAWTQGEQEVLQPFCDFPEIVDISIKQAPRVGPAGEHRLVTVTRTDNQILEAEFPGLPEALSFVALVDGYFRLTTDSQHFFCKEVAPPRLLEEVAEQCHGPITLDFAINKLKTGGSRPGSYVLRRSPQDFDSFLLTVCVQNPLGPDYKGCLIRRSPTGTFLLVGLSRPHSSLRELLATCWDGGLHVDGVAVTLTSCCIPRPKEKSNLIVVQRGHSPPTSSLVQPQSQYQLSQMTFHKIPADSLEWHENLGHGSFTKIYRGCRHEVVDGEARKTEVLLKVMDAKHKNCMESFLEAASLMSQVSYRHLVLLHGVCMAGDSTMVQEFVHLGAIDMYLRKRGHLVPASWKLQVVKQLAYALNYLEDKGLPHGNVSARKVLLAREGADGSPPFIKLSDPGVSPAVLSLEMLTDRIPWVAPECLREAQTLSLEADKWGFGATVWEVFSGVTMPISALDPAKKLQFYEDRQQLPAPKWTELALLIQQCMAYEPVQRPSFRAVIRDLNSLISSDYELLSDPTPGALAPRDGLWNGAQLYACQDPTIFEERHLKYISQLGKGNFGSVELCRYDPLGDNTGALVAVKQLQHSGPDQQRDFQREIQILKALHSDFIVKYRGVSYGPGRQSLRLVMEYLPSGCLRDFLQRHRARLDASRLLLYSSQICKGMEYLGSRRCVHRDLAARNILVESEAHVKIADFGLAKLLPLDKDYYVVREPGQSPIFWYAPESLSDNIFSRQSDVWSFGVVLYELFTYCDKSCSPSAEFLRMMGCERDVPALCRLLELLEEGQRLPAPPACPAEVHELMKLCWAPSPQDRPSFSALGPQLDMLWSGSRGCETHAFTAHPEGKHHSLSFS
Summary of the method: as §1

[3] = target: T2, 266 human kinases (Homo sapiens, UniProt O15111); conditions: IKKα(h); 100 μM
T2 sequence (O15111 1-745): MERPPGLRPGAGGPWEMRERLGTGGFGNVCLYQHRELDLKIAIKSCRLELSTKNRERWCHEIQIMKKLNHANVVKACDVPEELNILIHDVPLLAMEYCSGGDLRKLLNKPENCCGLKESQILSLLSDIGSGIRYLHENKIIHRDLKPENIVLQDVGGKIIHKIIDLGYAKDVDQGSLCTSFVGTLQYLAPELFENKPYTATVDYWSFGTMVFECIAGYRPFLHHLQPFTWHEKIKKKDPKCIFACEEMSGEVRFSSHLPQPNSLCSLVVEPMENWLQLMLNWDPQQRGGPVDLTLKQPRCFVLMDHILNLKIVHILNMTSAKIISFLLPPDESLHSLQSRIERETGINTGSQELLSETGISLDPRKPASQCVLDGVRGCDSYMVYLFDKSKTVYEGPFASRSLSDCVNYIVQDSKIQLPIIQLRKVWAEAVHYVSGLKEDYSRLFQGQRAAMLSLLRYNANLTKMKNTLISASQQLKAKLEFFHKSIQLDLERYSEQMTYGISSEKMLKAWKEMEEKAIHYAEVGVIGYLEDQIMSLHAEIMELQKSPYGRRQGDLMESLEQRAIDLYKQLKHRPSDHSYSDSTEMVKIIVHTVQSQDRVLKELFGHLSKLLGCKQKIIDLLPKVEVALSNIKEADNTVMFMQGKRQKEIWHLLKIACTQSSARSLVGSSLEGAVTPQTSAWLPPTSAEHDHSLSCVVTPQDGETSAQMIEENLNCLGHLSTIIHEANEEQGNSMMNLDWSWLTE
Summary of the method: as §1

[4] = target: 266 human kinases (Homo sapiens, UniProt Q15349); conditions: Rsk3(h); 100 μM
Chain of 266 human kinases (Homo sapiens, UniProt Q15349) (Q15349 whole entry): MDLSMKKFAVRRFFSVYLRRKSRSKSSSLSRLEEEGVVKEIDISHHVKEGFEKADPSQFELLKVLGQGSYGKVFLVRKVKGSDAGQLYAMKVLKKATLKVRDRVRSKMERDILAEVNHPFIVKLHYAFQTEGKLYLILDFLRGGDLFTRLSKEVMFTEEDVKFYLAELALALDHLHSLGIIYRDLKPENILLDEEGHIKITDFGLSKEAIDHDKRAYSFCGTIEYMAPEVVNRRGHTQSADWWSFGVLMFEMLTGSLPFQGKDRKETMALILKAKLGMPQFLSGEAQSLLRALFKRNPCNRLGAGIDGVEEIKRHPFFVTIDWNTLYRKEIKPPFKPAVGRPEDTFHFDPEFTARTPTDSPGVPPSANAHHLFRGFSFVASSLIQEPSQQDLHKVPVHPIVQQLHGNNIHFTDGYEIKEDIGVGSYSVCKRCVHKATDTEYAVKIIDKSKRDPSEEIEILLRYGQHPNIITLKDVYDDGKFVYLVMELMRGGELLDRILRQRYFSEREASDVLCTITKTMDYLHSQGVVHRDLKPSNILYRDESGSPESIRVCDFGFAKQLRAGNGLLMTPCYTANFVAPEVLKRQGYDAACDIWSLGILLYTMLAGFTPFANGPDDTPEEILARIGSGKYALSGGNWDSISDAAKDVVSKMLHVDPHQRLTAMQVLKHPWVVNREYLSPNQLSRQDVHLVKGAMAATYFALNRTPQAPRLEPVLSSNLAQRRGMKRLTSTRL
Summary of the method: as §1

[5] = target: 266 human kinases (Homo sapiens, UniProt Q06187, R28H); conditions: BTK(R28H)(h); 100 μM
Chain of 266 human kinases (Homo sapiens, UniProt Q06187, R28H) (Q06187 whole entry R28H): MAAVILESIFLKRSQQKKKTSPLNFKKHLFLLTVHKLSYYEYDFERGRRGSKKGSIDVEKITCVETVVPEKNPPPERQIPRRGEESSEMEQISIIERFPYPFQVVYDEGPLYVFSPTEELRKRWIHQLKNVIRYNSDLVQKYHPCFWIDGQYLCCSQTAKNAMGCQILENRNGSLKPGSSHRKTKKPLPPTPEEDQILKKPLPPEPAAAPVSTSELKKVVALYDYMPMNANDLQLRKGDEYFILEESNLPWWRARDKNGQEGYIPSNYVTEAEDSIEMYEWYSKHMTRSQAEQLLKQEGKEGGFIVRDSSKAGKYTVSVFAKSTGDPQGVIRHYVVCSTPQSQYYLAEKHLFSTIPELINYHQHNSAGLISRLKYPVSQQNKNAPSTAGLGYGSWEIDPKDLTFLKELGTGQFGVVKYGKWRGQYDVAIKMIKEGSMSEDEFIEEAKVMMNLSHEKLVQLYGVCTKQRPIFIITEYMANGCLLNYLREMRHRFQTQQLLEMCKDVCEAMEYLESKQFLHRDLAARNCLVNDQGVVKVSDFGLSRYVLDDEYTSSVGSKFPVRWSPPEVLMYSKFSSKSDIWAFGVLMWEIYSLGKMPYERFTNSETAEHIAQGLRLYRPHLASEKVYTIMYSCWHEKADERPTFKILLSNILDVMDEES
Summary of the method: as §1

[6] = target: 266 human kinases (Homo sapiens, UniProt Q9H2X6); conditions: HIPK2(h); 100 μM
Chain of 266 human kinases (Homo sapiens, UniProt Q9H2X6) (Q9H2X6 whole entry): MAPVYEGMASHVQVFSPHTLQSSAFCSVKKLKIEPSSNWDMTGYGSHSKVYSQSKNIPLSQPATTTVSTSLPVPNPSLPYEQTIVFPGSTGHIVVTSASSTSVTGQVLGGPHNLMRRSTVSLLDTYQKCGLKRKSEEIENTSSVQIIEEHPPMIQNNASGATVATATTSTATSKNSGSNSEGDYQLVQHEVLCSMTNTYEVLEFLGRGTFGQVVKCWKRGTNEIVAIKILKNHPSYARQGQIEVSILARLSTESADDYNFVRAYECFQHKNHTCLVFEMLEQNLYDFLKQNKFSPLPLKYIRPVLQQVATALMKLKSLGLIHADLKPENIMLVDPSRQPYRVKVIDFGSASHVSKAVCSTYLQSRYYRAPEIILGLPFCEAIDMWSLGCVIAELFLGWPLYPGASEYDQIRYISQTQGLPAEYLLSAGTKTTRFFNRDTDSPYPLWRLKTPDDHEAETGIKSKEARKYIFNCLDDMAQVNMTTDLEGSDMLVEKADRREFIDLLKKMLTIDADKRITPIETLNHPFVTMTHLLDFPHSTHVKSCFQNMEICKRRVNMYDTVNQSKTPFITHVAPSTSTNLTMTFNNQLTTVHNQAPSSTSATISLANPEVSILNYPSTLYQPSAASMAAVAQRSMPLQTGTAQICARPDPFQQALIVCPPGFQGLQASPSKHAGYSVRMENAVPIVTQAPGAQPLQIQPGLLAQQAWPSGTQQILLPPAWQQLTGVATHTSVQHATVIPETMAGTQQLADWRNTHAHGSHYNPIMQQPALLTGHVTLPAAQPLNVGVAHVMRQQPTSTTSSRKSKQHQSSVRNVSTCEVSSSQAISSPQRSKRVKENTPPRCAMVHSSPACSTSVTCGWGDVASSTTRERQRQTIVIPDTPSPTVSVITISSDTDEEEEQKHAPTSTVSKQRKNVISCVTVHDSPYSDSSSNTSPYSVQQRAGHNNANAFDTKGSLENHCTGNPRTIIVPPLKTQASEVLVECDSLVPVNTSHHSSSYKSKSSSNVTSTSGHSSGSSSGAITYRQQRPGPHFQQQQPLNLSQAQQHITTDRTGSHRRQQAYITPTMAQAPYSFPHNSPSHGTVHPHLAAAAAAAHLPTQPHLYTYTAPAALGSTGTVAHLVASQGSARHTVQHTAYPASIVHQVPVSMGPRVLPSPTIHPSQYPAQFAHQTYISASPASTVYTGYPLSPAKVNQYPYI
Summary of the method: as §1

[7] = target: 266 human kinases (Homo sapiens, UniProt Q9HBH9); conditions: Mnk2(h); 100 μM
Chain of 266 human kinases (Homo sapiens, UniProt Q9HBH9) (Q9HBH9 whole entry): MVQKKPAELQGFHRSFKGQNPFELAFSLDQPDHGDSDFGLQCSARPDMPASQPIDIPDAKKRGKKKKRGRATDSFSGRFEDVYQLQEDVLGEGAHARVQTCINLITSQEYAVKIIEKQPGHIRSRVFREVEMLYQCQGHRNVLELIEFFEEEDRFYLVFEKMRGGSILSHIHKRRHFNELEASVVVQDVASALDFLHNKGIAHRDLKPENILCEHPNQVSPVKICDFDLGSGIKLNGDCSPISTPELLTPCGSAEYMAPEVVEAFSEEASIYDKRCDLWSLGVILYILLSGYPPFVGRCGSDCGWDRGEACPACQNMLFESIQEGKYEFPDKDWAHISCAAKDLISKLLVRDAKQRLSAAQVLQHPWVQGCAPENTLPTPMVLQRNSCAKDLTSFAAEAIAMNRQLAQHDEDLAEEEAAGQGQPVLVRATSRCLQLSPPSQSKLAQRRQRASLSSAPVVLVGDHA
Summary of the method: as §1

[8] = target: 266 human kinases (Homo sapiens, UniProt P11362, V561M); conditions: FGFR1(V561M)(h); 100 μM
Chain of 266 human kinases (Homo sapiens, UniProt P11362, V561M) (P11362 22-822 V561M): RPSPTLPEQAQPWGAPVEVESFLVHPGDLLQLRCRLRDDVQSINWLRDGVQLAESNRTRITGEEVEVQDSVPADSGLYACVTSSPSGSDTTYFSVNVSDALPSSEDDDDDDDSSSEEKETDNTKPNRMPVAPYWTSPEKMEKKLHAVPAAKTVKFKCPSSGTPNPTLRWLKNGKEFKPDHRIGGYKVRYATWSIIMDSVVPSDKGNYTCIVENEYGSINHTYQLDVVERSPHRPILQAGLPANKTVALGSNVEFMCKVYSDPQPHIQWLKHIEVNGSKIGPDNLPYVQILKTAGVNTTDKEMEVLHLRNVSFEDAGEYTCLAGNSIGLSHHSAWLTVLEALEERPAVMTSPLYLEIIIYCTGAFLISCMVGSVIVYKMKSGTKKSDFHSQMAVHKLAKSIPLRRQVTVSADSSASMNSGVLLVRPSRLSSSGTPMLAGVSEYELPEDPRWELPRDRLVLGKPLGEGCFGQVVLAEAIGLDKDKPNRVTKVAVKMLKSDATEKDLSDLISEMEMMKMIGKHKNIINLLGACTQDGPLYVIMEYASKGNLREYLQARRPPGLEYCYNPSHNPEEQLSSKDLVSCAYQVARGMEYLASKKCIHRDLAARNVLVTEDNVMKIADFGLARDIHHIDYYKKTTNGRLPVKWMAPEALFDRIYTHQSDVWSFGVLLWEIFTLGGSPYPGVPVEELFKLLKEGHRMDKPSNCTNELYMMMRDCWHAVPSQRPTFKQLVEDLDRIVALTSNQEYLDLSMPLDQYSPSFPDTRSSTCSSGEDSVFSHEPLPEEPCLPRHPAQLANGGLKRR
Summary of the method: as §1

Chain of 266 human kinases (Homo sapiens, UniProt Q9H1R3) (Q9H1R3 whole entry): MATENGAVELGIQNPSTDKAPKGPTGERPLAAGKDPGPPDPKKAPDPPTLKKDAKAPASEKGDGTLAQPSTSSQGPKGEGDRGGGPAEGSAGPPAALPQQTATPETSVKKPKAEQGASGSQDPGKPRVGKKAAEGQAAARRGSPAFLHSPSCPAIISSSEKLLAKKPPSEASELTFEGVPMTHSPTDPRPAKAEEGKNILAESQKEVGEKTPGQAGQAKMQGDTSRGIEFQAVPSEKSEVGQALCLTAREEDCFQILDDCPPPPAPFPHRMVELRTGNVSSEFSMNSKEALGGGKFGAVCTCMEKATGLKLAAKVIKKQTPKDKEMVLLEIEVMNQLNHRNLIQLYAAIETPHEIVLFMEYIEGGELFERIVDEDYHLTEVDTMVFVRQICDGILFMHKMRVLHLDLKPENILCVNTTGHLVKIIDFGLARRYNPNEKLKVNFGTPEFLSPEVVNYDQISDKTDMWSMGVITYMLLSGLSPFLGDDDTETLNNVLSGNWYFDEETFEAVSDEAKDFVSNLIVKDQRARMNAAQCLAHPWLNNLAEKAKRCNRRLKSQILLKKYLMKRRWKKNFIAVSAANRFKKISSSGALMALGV

Sequence	% activity [1] [%]	% activity [2] [%]	% activity [3] [%]	% activity [4] [%]	% activity [5] [%]	% activity [6] [%]	% activity [7] [%]	% activity [8] [%]
HRRIKAWLKKIKALARQLGVAA (mammal) [MMI-0500]	0	95	50	23	10	38	6	
YARAAARQARAKALNRQLGVA (mammal) [MMI-0200]								72
